# In IntAct's records for PubMed 31217420:
# B1: Acid sphingomyelinase-like phosphodiesterase 3b (Homo sapiens), Q92485-2 (parent)
# chain: MRLLAWLIFLANWGGARAEPGKFWHIADLHLDPDYKVSKDPFQVCPSAGSQPVPDAGPWGDYLCDSPWALINSSIYAMKEIEPEPDFILWTGDDTPHVPDEKLGEAAVLEIVERLTKLIREVFPDTKVYAALGNHDFHPKNQFPAGSNNIYNQIAELWKPWLSNESIALFKKGAFYCEKLPGPSGAGRIVVLNTNLYYTSNALTADMADPGQQFQWLEDVLTDASKAGDMVYIVGHVPPGFFEKTQNKAWFREGFNEKYLKVVRKHHRVIAGQFFGHHHTDSFRMLYDDAGVPISAMFITPGVTPWKTTLPGVVNGANNPAIRVFEYDRATLSLKVRSPAEARGGGWEGLKCITTFPHSQLIHLPLTTEPQEG
# Variants of: B1
# Conditions: with INSR
row,effect of a mutation on the interaction,Variant
1,with no effect,MRLLAWLIFLANWGGARAEPGKFWHIADLHLDPDYKVSKDPFQVCPSAGSQPVPDAGPWGDYLCDSPWALINSSIYAMKEIEPEPDFILWTGDDTPHVPDEKLGEAAVLEIVERLTKLIREVFPDTKVYAALGNADFHPKNQFPAGSNNIYNQIAELWKPWLSNESIALFKKGAFYCEKLPGPSGAGRIVVLNTNLYYTSNALTADMADPGQQFQWLEDVLTDASKAGDMVYIVGHVPPGFFEKTQNKAWFREGFNEKYLKVVRKHHRVIAGQFFGHHHTDSFRMLYDDAGVPISAMFITPGVTPWKTTLPGVVNGANNPAIRVFEYDRATLSLKVRSPAEARGGGWEGLKCITTFPHSQLIHLPLTTEPQEG [H135A]

# Variants of: B1
# Conditions: with INSR
# Remark: another data set of the same source
row,effect of a mutation on the interaction,Variant
1,with no effect,MRLLAWLIFLANWGGARAEPGKFWHIADLHLDPDYKVSKDPFQVCPSAGSQPVPDAGPWGDYLCDSPWALINSSIYAMKEIEPEPDFILWTGDDTPHVPDEKLGEAAVLEIVERLTKLIREVFPDTKVYAALGNADFHPKNQFPAGSNNIYNQIAELWKPWLSNESIALFKKGAFYCEKLPGPSGAGRIVVLNTNLYYTSNALTADMADPGQQFQWLEDVLTDASKAGDMVYIVGHVPPGFFEKTQNKAWFREGFNEKYLKVVRKHHRVIAGQFFGHHHTDSFRMLYDDAGVPISAMFITPGVTPWKTTLPGVVNGANNPAIRVFEYDRATLSLKVRSPAEARGGGWEGLKCITTFPHSQLIHLPLTTEPQEG [H135A]

# Variants of: B1
# Conditions: with CAV1, Q03135-1
# CAV1, Q03135-1, sequence (Q03135 whole entry): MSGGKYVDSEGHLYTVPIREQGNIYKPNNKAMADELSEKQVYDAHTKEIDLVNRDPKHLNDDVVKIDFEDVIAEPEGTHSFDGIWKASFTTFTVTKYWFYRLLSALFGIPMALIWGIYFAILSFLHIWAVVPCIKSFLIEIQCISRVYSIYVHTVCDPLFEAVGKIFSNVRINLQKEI
row,effect of a mutation on the interaction,Variant
1,with no effect,MRLLAWLIFLANWGGARAEPGKFWHIADLHLDPDYKVSKDPFQVCPSAGSQPVPDAGPWGDYLCDSPWALINSSIYAMKEIEPEPDFILWTGDDTPHVPDEKLGEAAVLEIVERLTKLIREVFPDTKVYAALGNADFHPKNQFPAGSNNIYNQIAELWKPWLSNESIALFKKGAFYCEKLPGPSGAGRIVVLNTNLYYTSNALTADMADPGQQFQWLEDVLTDASKAGDMVYIVGHVPPGFFEKTQNKAWFREGFNEKYLKVVRKHHRVIAGQFFGHHHTDSFRMLYDDAGVPISAMFITPGVTPWKTTLPGVVNGANNPAIRVFEYDRATLSLKVRSPAEARGGGWEGLKCITTFPHSQLIHLPLTTEPQEG [H135A]
